{"source": "patent US20210388087A1", "about": "(Chugai, published 2021)", "data": [{"molecular_target": "T1, Human CD3eg linker (human)", "T1 construct": "Single-chain construct; also called recombinant human CD3", "T1 chain": "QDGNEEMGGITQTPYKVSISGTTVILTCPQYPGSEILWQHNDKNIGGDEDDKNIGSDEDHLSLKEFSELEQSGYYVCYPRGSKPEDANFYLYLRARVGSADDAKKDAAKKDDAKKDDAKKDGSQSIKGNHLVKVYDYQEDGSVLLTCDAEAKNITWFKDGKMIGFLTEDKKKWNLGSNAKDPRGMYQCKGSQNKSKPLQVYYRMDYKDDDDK", "assay": "SPR; fold vs parent H183/L072", "units": {"fold change of affinity": "fold"}, "values": [{"binder": "H183/L072 VL V94F (antibody, name in Kabat numbering, V domains shown) VH: QVQLVESGGGLVQPGRSLRLSCAASGFTFSNAWMHWVRQAPGKGLEWVAQIKDKGNAYAAYYAPSVKGRFTISRDDSKNSIYLQMNSLKTEDTAVYYCHYVHYASASTVLPAFGVDAWGQGTTVTVSS VL: DIVMTQSPLSLPVTPGEPASISCQASQELVHMNRNTYLHWYQQKPGQAPRLLIYKVSNRFPGVPDRFSGSGSGTDFTLKISRVEAEDVGVYYCAQGTSFPFTFGQGTKLEIK", "fold change of affinity": 0.2}, {"binder": "H183/L072 VL V94T (antibody, name in Kabat numbering, V domains shown) VH: QVQLVESGGGLVQPGRSLRLSCAASGFTFSNAWMHWVRQAPGKGLEWVAQIKDKGNAYAAYYAPSVKGRFTISRDDSKNSIYLQMNSLKTEDTAVYYCHYVHYASASTVLPAFGVDAWGQGTTVTVSS VL: DIVMTQSPLSLPVTPGEPASISCQASQELVHMNRNTYLHWYQQKPGQAPRLLIYKVSNRFPGVPDRFSGSGSGTDFTLKISRVEAEDVGVYYCAQGTSTPFTFGQGTKLEIK", "fold change of affinity": 1.3}, {"binder": "H183/L072 VL V94I (antibody, name in Kabat numbering, V domains shown) VH: QVQLVESGGGLVQPGRSLRLSCAASGFTFSNAWMHWVRQAPGKGLEWVAQIKDKGNAYAAYYAPSVKGRFTISRDDSKNSIYLQMNSLKTEDTAVYYCHYVHYASASTVLPAFGVDAWGQGTTVTVSS VL: DIVMTQSPLSLPVTPGEPASISCQASQELVHMNRNTYLHWYQQKPGQAPRLLIYKVSNRFPGVPDRFSGSGSGTDFTLKISRVEAEDVGVYYCAQGTSIPFTFGQGTKLEIK", "fold change of affinity": 0.8}, {"binder": "H183/L072 VL V94H (antibody, name in Kabat numbering, V domains shown) VH: QVQLVESGGGLVQPGRSLRLSCAASGFTFSNAWMHWVRQAPGKGLEWVAQIKDKGNAYAAYYAPSVKGRFTISRDDSKNSIYLQMNSLKTEDTAVYYCHYVHYASASTVLPAFGVDAWGQGTTVTVSS VL: DIVMTQSPLSLPVTPGEPASISCQASQELVHMNRNTYLHWYQQKPGQAPRLLIYKVSNRFPGVPDRFSGSGSGTDFTLKISRVEAEDVGVYYCAQGTSHPFTFGQGTKLEIK", "fold change of affinity": 0.8}, {"binder": "H183/L072 VL Y32H (antibody, name in Kabat numbering, V domains shown) VH: QVQLVESGGGLVQPGRSLRLSCAASGFTFSNAWMHWVRQAPGKGLEWVAQIKDKGNAYAAYYAPSVKGRFTISRDDSKNSIYLQMNSLKTEDTAVYYCHYVHYASASTVLPAFGVDAWGQGTTVTVSS VL: DIVMTQSPLSLPVTPGEPASISCQASQELVHMNRNTHLHWYQQKPGQAPRLLIYKVSNRFPGVPDRFSGSGSGTDFTLKISRVEAEDVGVYYCAQGTSVPFTFGQGTKLEIK", "fold change of affinity": 0}, {"binder": "H183/L072 VL Y32G (antibody, name in Kabat numbering, V domains shown) VH: QVQLVESGGGLVQPGRSLRLSCAASGFTFSNAWMHWVRQAPGKGLEWVAQIKDKGNAYAAYYAPSVKGRFTISRDDSKNSIYLQMNSLKTEDTAVYYCHYVHYASASTVLPAFGVDAWGQGTTVTVSS VL: DIVMTQSPLSLPVTPGEPASISCQASQELVHMNRNTGLHWYQQKPGQAPRLLIYKVSNRFPGVPDRFSGSGSGTDFTLKISRVEAEDVGVYYCAQGTSVPFTFGQGTKLEIK", "fold change of affinity": 0}, {"binder": "H183/L072 VL V94K (antibody, name in Kabat numbering, V domains shown) VH: QVQLVESGGGLVQPGRSLRLSCAASGFTFSNAWMHWVRQAPGKGLEWVAQIKDKGNAYAAYYAPSVKGRFTISRDDSKNSIYLQMNSLKTEDTAVYYCHYVHYASASTVLPAFGVDAWGQGTTVTVSS VL: DIVMTQSPLSLPVTPGEPASISCQASQELVHMNRNTYLHWYQQKPGQAPRLLIYKVSNRFPGVPDRFSGSGSGTDFTLKISRVEAEDVGVYYCAQGTSKPFTFGQGTKLEIK", "fold change of affinity": 0.4}, {"binder": "H183/L072 VL Y32E (antibody, name in Kabat numbering, V domains shown) VH: QVQLVESGGGLVQPGRSLRLSCAASGFTFSNAWMHWVRQAPGKGLEWVAQIKDKGNAYAAYYAPSVKGRFTISRDDSKNSIYLQMNSLKTEDTAVYYCHYVHYASASTVLPAFGVDAWGQGTTVTVSS VL: DIVMTQSPLSLPVTPGEPASISCQASQELVHMNRNTELHWYQQKPGQAPRLLIYKVSNRFPGVPDRFSGSGSGTDFTLKISRVEAEDVGVYYCAQGTSVPFTFGQGTKLEIK", "fold change of affinity": 0}, {"binder": "H183/L072 VL Y32L (antibody, name in Kabat numbering, V domains shown) VH: QVQLVESGGGLVQPGRSLRLSCAASGFTFSNAWMHWVRQAPGKGLEWVAQIKDKGNAYAAYYAPSVKGRFTISRDDSKNSIYLQMNSLKTEDTAVYYCHYVHYASASTVLPAFGVDAWGQGTTVTVSS VL: DIVMTQSPLSLPVTPGEPASISCQASQELVHMNRNTLLHWYQQKPGQAPRLLIYKVSNRFPGVPDRFSGSGSGTDFTLKISRVEAEDVGVYYCAQGTSVPFTFGQGTKLEIK", "fold change of affinity": 0}, {"binder": "H183/L072 VL Y32N (antibody, name in Kabat numbering, V domains shown) VH: QVQLVESGGGLVQPGRSLRLSCAASGFTFSNAWMHWVRQAPGKGLEWVAQIKDKGNAYAAYYAPSVKGRFTISRDDSKNSIYLQMNSLKTEDTAVYYCHYVHYASASTVLPAFGVDAWGQGTTVTVSS VL: DIVMTQSPLSLPVTPGEPASISCQASQELVHMNRNTNLHWYQQKPGQAPRLLIYKVSNRFPGVPDRFSGSGSGTDFTLKISRVEAEDVGVYYCAQGTSVPFTFGQGTKLEIK", "fold change of affinity": 0}, {"binder": "H183/L072 VL V94M (antibody, name in Kabat numbering, V domains shown) VH: QVQLVESGGGLVQPGRSLRLSCAASGFTFSNAWMHWVRQAPGKGLEWVAQIKDKGNAYAAYYAPSVKGRFTISRDDSKNSIYLQMNSLKTEDTAVYYCHYVHYASASTVLPAFGVDAWGQGTTVTVSS VL: DIVMTQSPLSLPVTPGEPASISCQASQELVHMNRNTYLHWYQQKPGQAPRLLIYKVSNRFPGVPDRFSGSGSGTDFTLKISRVEAEDVGVYYCAQGTSMPFTFGQGTKLEIK", "fold change of affinity": 0.8}, {"binder": "H183/L072 VL V94S (antibody, name in Kabat numbering, V domains shown) VH: QVQLVESGGGLVQPGRSLRLSCAASGFTFSNAWMHWVRQAPGKGLEWVAQIKDKGNAYAAYYAPSVKGRFTISRDDSKNSIYLQMNSLKTEDTAVYYCHYVHYASASTVLPAFGVDAWGQGTTVTVSS VL: DIVMTQSPLSLPVTPGEPASISCQASQELVHMNRNTYLHWYQQKPGQAPRLLIYKVSNRFPGVPDRFSGSGSGTDFTLKISRVEAEDVGVYYCAQGTSSPFTFGQGTKLEIK", "fold change of affinity": 0.7}, {"binder": "H183/L072 VL Y32K (antibody, name in Kabat numbering, V domains shown) VH: QVQLVESGGGLVQPGRSLRLSCAASGFTFSNAWMHWVRQAPGKGLEWVAQIKDKGNAYAAYYAPSVKGRFTISRDDSKNSIYLQMNSLKTEDTAVYYCHYVHYASASTVLPAFGVDAWGQGTTVTVSS VL: DIVMTQSPLSLPVTPGEPASISCQASQELVHMNRNTKLHWYQQKPGQAPRLLIYKVSNRFPGVPDRFSGSGSGTDFTLKISRVEAEDVGVYYCAQGTSVPFTFGQGTKLEIK", "fold change of affinity": 0}, {"binder": "H183/L072 VL Y32A (antibody, name in Kabat numbering, V domains shown) VH: QVQLVESGGGLVQPGRSLRLSCAASGFTFSNAWMHWVRQAPGKGLEWVAQIKDKGNAYAAYYAPSVKGRFTISRDDSKNSIYLQMNSLKTEDTAVYYCHYVHYASASTVLPAFGVDAWGQGTTVTVSS VL: DIVMTQSPLSLPVTPGEPASISCQASQELVHMNRNTALHWYQQKPGQAPRLLIYKVSNRFPGVPDRFSGSGSGTDFTLKISRVEAEDVGVYYCAQGTSVPFTFGQGTKLEIK", "fold change of affinity": 0}, {"binder": "H183/L072 VL V94P (antibody, name in Kabat numbering, V domains shown) VH: QVQLVESGGGLVQPGRSLRLSCAASGFTFSNAWMHWVRQAPGKGLEWVAQIKDKGNAYAAYYAPSVKGRFTISRDDSKNSIYLQMNSLKTEDTAVYYCHYVHYASASTVLPAFGVDAWGQGTTVTVSS VL: DIVMTQSPLSLPVTPGEPASISCQASQELVHMNRNTYLHWYQQKPGQAPRLLIYKVSNRFPGVPDRFSGSGSGTDFTLKISRVEAEDVGVYYCAQGTSPPFTFGQGTKLEIK", "fold change of affinity": 1.5}, {"binder": "H183/L072 VL Y32D (antibody, name in Kabat numbering, V domains shown) VH: QVQLVESGGGLVQPGRSLRLSCAASGFTFSNAWMHWVRQAPGKGLEWVAQIKDKGNAYAAYYAPSVKGRFTISRDDSKNSIYLQMNSLKTEDTAVYYCHYVHYASASTVLPAFGVDAWGQGTTVTVSS VL: DIVMTQSPLSLPVTPGEPASISCQASQELVHMNRNTDLHWYQQKPGQAPRLLIYKVSNRFPGVPDRFSGSGSGTDFTLKISRVEAEDVGVYYCAQGTSVPFTFGQGTKLEIK", "fold change of affinity": 0}, {"binder": "H183/L072 VL V94L (antibody, name in Kabat numbering, V domains shown) VH: QVQLVESGGGLVQPGRSLRLSCAASGFTFSNAWMHWVRQAPGKGLEWVAQIKDKGNAYAAYYAPSVKGRFTISRDDSKNSIYLQMNSLKTEDTAVYYCHYVHYASASTVLPAFGVDAWGQGTTVTVSS VL: DIVMTQSPLSLPVTPGEPASISCQASQELVHMNRNTYLHWYQQKPGQAPRLLIYKVSNRFPGVPDRFSGSGSGTDFTLKISRVEAEDVGVYYCAQGTSLPFTFGQGTKLEIK", "fold change of affinity": 0.3}, {"binder": "H183/L072 VL V94R (antibody, name in Kabat numbering, V domains shown) VH: QVQLVESGGGLVQPGRSLRLSCAASGFTFSNAWMHWVRQAPGKGLEWVAQIKDKGNAYAAYYAPSVKGRFTISRDDSKNSIYLQMNSLKTEDTAVYYCHYVHYASASTVLPAFGVDAWGQGTTVTVSS VL: DIVMTQSPLSLPVTPGEPASISCQASQELVHMNRNTYLHWYQQKPGQAPRLLIYKVSNRFPGVPDRFSGSGSGTDFTLKISRVEAEDVGVYYCAQGTSRPFTFGQGTKLEIK", "fold change of affinity": 0.5}, {"binder": "H183/L072 VL V94N (antibody, name in Kabat numbering, V domains shown) VH: QVQLVESGGGLVQPGRSLRLSCAASGFTFSNAWMHWVRQAPGKGLEWVAQIKDKGNAYAAYYAPSVKGRFTISRDDSKNSIYLQMNSLKTEDTAVYYCHYVHYASASTVLPAFGVDAWGQGTTVTVSS VL: DIVMTQSPLSLPVTPGEPASISCQASQELVHMNRNTYLHWYQQKPGQAPRLLIYKVSNRFPGVPDRFSGSGSGTDFTLKISRVEAEDVGVYYCAQGTSNPFTFGQGTKLEIK", "fold change of affinity": 0.9}, {"binder": "H183/L072 VL V94Q (antibody, name in Kabat numbering, V domains shown) VH: QVQLVESGGGLVQPGRSLRLSCAASGFTFSNAWMHWVRQAPGKGLEWVAQIKDKGNAYAAYYAPSVKGRFTISRDDSKNSIYLQMNSLKTEDTAVYYCHYVHYASASTVLPAFGVDAWGQGTTVTVSS VL: DIVMTQSPLSLPVTPGEPASISCQASQELVHMNRNTYLHWYQQKPGQAPRLLIYKVSNRFPGVPDRFSGSGSGTDFTLKISRVEAEDVGVYYCAQGTSQPFTFGQGTKLEIK", "fold change of affinity": 1}]}]}
